Data as given in patent US6545137.

Target: low-density lipoprotein (LDL), 125I-labelled
Assay: cell-based or functional assay

| Substance | LDL uptake (40 ug/ml 125I-LDL, 4 h, 37 C, FH fibroblasts infected with LDL-receptor adenovirus) [fold] | LDL uptake (40 ug/ml 125I-LDL, 4 h, 37 C, FH fibroblasts infected with LRP5 adenovirus) [% increase] |
| --- | --- | --- |
| human LDL-receptor (from UniProt P01130 22-860) | 20 | – |
| human LRP5 (LDL-receptor related protein-5), isoform 1 (from UniProt O75197 32-1615) | – | 60 |
